# T1: recombinant human IGSF8 extracellular domain tagged by a human Fc region (IGSF8-hFc) (human, UniProt Q969P0 28-579, biotin label in Examples 17, 18 and 28 (site not given))
# T1 construct: also called IGSF8-Fc fusion protein; IGSF8-hFc-biotin; not shown: human Fc region
# T1 sequence: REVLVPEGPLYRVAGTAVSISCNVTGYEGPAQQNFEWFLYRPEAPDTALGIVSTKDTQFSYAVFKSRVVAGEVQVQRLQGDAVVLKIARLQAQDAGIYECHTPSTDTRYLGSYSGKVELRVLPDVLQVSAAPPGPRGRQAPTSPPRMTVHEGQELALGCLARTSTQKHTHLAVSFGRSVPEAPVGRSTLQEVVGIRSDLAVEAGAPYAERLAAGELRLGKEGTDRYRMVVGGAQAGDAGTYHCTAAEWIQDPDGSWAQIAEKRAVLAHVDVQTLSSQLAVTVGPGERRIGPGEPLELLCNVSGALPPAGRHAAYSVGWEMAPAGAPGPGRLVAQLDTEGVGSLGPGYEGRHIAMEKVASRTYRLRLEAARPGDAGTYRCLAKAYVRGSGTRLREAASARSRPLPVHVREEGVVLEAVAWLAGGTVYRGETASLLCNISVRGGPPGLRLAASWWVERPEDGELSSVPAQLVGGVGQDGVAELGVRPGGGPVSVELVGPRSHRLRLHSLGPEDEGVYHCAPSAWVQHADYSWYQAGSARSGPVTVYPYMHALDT
# T2: mouse IGSF8 expressed on CT26 cells (mouse, UniProt Q8R366 26-611)
# T2 construct: whole, on cells
# T2 sequence (looked up): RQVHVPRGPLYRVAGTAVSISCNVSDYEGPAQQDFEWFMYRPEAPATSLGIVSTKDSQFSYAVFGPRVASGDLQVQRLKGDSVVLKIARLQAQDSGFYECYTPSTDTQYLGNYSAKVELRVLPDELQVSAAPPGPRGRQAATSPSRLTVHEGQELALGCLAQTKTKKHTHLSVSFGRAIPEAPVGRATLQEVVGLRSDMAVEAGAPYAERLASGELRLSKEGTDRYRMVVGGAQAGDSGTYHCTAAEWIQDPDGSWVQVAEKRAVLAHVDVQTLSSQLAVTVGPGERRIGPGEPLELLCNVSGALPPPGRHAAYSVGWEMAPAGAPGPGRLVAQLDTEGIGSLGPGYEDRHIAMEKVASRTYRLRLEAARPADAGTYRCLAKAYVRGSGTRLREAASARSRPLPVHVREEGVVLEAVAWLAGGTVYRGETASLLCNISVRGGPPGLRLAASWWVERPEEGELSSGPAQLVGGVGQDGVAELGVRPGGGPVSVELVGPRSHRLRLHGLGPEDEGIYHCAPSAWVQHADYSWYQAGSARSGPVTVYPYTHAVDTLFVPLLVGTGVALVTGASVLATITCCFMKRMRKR
# T3: cynomolgus monkey IGSF8 expressed on CT26 cells (cynomolgus monkey, UniProt Q969P0 28-613 (human entry))
# T3 sequence: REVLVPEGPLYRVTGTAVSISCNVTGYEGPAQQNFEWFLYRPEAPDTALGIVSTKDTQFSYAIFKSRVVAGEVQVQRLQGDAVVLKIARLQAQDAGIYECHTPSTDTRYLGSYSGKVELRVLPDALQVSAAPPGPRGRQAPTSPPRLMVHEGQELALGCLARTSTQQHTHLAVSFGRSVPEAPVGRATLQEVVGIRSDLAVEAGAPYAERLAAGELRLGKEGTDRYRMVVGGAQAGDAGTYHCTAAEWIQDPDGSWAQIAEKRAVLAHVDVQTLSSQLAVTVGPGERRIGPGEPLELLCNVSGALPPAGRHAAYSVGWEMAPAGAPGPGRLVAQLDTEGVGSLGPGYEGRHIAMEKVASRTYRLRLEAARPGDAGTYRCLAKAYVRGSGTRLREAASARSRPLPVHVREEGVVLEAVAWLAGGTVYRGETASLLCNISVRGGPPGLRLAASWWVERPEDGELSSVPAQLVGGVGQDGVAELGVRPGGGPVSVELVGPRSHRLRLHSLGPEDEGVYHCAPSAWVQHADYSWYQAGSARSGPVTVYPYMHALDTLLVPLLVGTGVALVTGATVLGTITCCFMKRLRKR
# T4: human IGSF8 expressed on the cell surface (human, UniProt Q969P0 28-613)
# T4 construct: whole, on cells; also called human IGSF8 on CT26 cells; IGSF8 on MC38 cells
# T4 sequence (looked up): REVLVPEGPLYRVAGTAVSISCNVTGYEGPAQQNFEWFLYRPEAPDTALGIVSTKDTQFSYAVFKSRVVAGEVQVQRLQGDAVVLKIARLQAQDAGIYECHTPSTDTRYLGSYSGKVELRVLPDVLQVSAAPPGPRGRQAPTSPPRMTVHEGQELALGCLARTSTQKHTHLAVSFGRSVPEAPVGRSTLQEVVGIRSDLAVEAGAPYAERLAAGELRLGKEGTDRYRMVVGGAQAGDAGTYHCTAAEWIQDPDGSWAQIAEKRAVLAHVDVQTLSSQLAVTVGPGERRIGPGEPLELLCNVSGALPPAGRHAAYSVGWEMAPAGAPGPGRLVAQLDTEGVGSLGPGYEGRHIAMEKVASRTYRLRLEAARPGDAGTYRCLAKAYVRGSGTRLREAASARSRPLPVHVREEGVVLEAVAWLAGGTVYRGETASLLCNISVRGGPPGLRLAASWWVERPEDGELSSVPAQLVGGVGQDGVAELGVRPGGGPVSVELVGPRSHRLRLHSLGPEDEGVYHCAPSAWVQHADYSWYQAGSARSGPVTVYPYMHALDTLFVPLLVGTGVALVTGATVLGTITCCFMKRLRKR
# What was measured:
# [1] = molecular target: T1, recombinant human IGSF8 extracellular …; assay: SPR, Ab captured
# Description: The binding affinities of the L1 and L2 antibodies to IGSF8 recombinant protein were determined by surface plasmon resonance (SPR). Briefly, anti-human Fab antibody was imobilized on acarboxyl-derivatized SPR chip surface, and the antibodies were captured on the resulting surface at 5 μg/ml for 30 seconds.
# [2] = molecular target: T1, recombinant human IGSF8 extracellular …; assay: FACS blocking assay: antibody titrated against biotinylated IGSF8-hFc (1 ug/mL) binding to KIR3DL2 on CT26 cells, Streptavidin-PE
# Description: CT26 cells with forced ectopic/exogenous human KIR3DL2 expression were incubated with biotinylated IGSF8-hFc recombinant protein (1 μg/mL) in the presence of the antibodies L1-20, L2-10, and a isotype control antibody. The binding of IGSF8-hFc-biotin to the Ct26 cells was determined using Streptavidin-PE by flow cytometry analysis (FIG. 39).
# [3] = molecular target: T2, mouse IGSF8 expressed on CT26 cells; assay: FACS on CT26 cells expressing mouse IGSF8, anti-human Fc-PE
# Description: (§1) To test cross reactivity of the L1, and L2 antibodies, CT26 cells with forced human, cynomolgus monkey, or mouse IGSF8 expression were generated by lentiviral delivery. For antibody binding assays based on cell-expressed antigens, 100,000 cells overexpressing the antigen were washed with PBS buffer containing 2% FBS, and then incubated with 100 μL of antibodies or IgG of different concentrations for 30 minutes on ice. Cells were then washed twice with wash buffer, and incubated with 100 μL of 1:100 anti-human Fc-PE antibody for 15 minutes on ice. Cells were washed twice with wash buffer and analyzed on a FACS analyzer (CytoFlex, Beckman). The MFI was plotted vs. antibody concentration. The EC50 cell binding potenct was calculated using nonlinear regression curve fit.
# [4] = molecular target: T3, cynomolgus monkey IGSF8 expressed on …; assay: FACS on CT26 cells expressing IGSF8
# Description: as §1
# [5] = molecular target: T4, human IGSF8 expressed on the cell …; assay: FACS on CT26 cells expressing IGSF8
# Description: as §1
# [6] = molecular target: T2, mouse IGSF8 expressed on CT26 cells; assay: FACS on CT26 cells expressing IGSF8
# Description: as §1
# [7] = molecular target: T1, recombinant human IGSF8 extracellular …; assay: FACS, IGSF8-hFc on CT26 cells, MFI normalized to Thy1.1
# Description: KLRC1 also contains a ITIM motif in its intracellular domain, and was known to be a inhibitory receptor of NK or CD8⁺ T cells as part of a heterodimer with KLRD1 on the cell surface. […] Specifically, 100,000 CT26 cells overexpressing the antigens (KIRs or KLRs) were washed with PBS buffer containing 2% FBS, and incubated with 100 μL IGSF8 recombinant proteins or antibodies (5 μg/mL) for 30 minutes on ice. Cells were then washed twice with wash buffer, and incubated with 100 μL of 1:100 anti-human Fc-PE antibody for 15 minutes on ice. Cells were washed twice with wash buffer and analyzed on a FACS analyzer (CytoFlex, Beckman). In these experiments, the mean fluorescence intensity (MFI) of IGSF8 binding to different CT26 cells were normalized by the expression of different KLRs on CT26 cells using an anti-thy1.1 mAb via flow cytometry.
Kd [1] [nM],koff [1] [s⁻¹],kon [1] [M⁻¹ s⁻¹],IC50 (read off the curve) [2] [µg/mL],binding result [3],EC50 [4] [µg/mL],EC50 [5] [µg/mL],EC50 [6] [µg/mL],binding result [7],Binder
0.256,3.68e-05,144000,~0.4,no binding (tested: 40 ug/ml),0.041,0.145,,,"L2-10 (antibody, V domains shown, also called L2-10-IgG1) VH: EVQLVESGGGLEQPGGSLRLSCAASGFTFRDYAMTWVRQAPGKGLEWVSSISGSGGSTYYADSVKGRFTISRDNSKNTLYLQMNSLRAEDTAIYYCARGEYSSGWPSWFDPWGQGTLVTVSS VL: DIQMTQSPSSLSASVGDRVTITCRASRTVGTFLNWYQQKPGKAPKALILHTSILEGGVPSRFSGSGSGTDFTLTISSLQPEDIATYYCQQSHDVPRTFGQGTKVEIK"
,,,,no binding (tested: 40 ug/ml),0.212,0.473,,,"L2-01 (antibody, V domains shown, Expressed in CHO cells; also called L2 antibody; L2-01-IgG1) VH: EVQLVESGGGLEQPGGSLRLSCAGSGFTFRDYAMTWVRQAPGKGLEWVSSISGSGGNTYYADSVKGRFTISRDNSKNTLYLQMNSLRAEDTAIYYCARGEYSSGWPSWFDPWGQGTLVTVSS VL: EIVLTQSPSSLSASVGDRVTISCRASRTVGTFLNWYQQRPGKPPQALILGVSILEGGVSSRFSGAGSGTEFSLTISSLQPEDIGTYYCQQSHDVPRTFGQGTKVDLR"
0.0214,7.02e-06,329000,~0.3,,0.0268,0.0537,0.0275,,"L1-20 (antibody, IgG1, V domains shown, also called L1-20-IgG1) VH: QVQLVESGGGVVQPGRSLRLSCAASGFTFSTYGMHWVRQAPGKGLEWVAVIWDDGSYKYYGDSVKGRFTISRDNSKNTLYLQMNSLRAEDTAVYYCARDGSGWGYAFDIWGQGTLVTVSS VL: DIQLTQSPSSLSASVGDRVTITCQASQDIEWWLNWYQQKPGKAPKLLIYGSPNLETGVPSRFSGSGSGTDFTFTISSLQPEDIATYYCQQYDSFPYTFGQGTKVEIK"
,,,,,0.224,0.206,0.538,,"L1-01 (antibody, V domains shown, Expressed in CHO cells; also called L1 antibody; L1-01-IgG1) VH: QVQLVESGGGVVQPGRSLRLSCAASGFTFSTYGMHWVRQAPGKGLEWVAVIWDDGSYKYYGDSVKGRFTISRDNSKNTLYLQMNSLRAEDTAVYYCARDGSGWGYAFDIWGQGTMVTVSS VL: DIQLTQSPSSLSASVGDRVTITCQASQDISEYLNWYQHKPGKAPNPLVFDAANLETGVPPRFSATGSGTDFSLTITSLQPEDFATYYCQQYDSFPYTFGQGTRLDIK"
,,,,,,,,no binding,"KLRD1 alone on CT26 cells (receptor, UniProt Q13241 1-179, looked up, whole, on cells; also called KLRD1 monomer) MAVFKTTLWRLISGTLGIICLSLMSTLGILLKNSFTKLSIEPAFTPGPNIELQKDSDCCSCQEKWVGYRCNCYFISSEQKTWNESRHLCASQKSSLLQLQNTDELDFMSSSQQFYWIGLSYSEEHTAWLWENGSALSQYLFPSFETFNTKNCIAYNPNGNALDESCEDKNRYICKQQLI"
,,,,,,,,no binding,"KLRC1 alone on CT26 cells (receptor, whole, on cells; also called KLRC1 monomer) not shown"
